In paper PMC3020921 (Molecular Biology of the Cell, 2011):

Tests used:
[1] = target: Flag-tagged Nemo-like kinase (NLK), wild type; experiment: SEC
SEC = target: the molecule itself; experiment: SEC

| stoichiometry N [1] | Molecule | stoichiometry N (SEC) |
| --- | --- | --- |
| 2 | Flag-tagged Nemo-like kinase (NLK), wild type (enzyme) | – |
| – | endogenous NLK protein of PC12 cells (enzyme, rat (endogenous in PC12), UniProt D3ZSZ3 1-527, looked up) MSLCGTRANAKMMAAYNGGTSAAAAGHHHHHHHHLPHLPPPHLHHHHHPQHHLHPGSAAAVHPVQQHTSSAAAAAAAAAAAAAMLNPGQQQPYFPSPAPGQAPGPAAAAPAQVQAAAAATVKAHHHQHSHHPQQQLDIEPDRPIGYGAFGVVWSVTDPRDGKRVALKKMPNVFQNLVSCKRVFRELKMLCFFKHDNVLSALDILQPPHIDYFEEIYVVTELMQSDLHKIIVSPQPLSSDHVKVFLYQILRGLKYLHSAGILHRDIKPGNLLVNSNCVLKICDFGLARVEELDESRHMTQEVVTQYYRAPEILMGSRHYSNAIDIWSVGCIFAELLGRRILFQAQSPIQQLDLITDLLGTPSLEAMRTACEGAKAHILRGPHKQPSLPVLYTLSSQATHEAVHLLCRMLVFDPSKRISAKDALAHPYLDEGRLRYHTCMCKCCFSTSTGRVYTSDFEPVTNPKFDDTFEKNLSSVRQVKEIIHQFILEQQKGNRVPLCINPQSAAFKSFISSTVAQPSEMPPSPLVWE | 2 |
